± gives the uncertainty stated by the source.
Test: self-splicing fitness, log relative to wild type (ln ratio); higher = more splicing; Tetrahymena group I intron in knt gene, E. coli kanamycin selection, DiMSum; sequences stand for … in CUCUCU…GGAGGGAAAAGUUAUCAGGCAUGCACCUGGUAGCUAGUCUUUAAACCAAUAGAUUGCAUCGGUUUAAAAGGCAAGACCGUCAAAUUGCGGGAAAGGGGUCAACAGCCGUUCAGUACCAAGUCUCAGGGGAAACUUUGAGAUGGCCUUGCAAAGGGUAUGGUAAUAAGCUGACGGACAUGGUCCUAACCACGCAGCCAAGUCCUAAGUCAACAGAUCUUCUGUUGAUAUGGAUGCAGUUCACAGACUAAAUGUCGGUCGGGGAAGAUGUAUUCUUCUCAUAAGAUAUAGUCGGACCUCUCCUUAAUGGGAGCUAGCGGAUGAAGUGAUGCAACACUGGAGCCGCUGGGAACUAAUUUGUAUGCGAAAGUAUAUUGAUUAGUUUUGGAGUACUCGUGGUCG
Procedure, shortened: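 A randomised library covering all eight P1ex-region intron nucleotides was built with the intron in the knt kanamycin-resistance gene on pET-22b(+) and held in E. coli BL21(DE3). Cells were grown overnight at 37°C or 30°C on LB agar, with or without 25 μg/mL kanamycin, plus 100 μg/mL carbenicillin, 50 μM IPTG and 0.2% rhamnose, and pooled colonies were amplicon-sequenced on an Illumina HiSeq 2500. DiMSum fitness is the error-weighted combination of wild-type-normalised replicate fold changes, kanamycin versus none.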

Sequence	self-splicing fitness (ln) (30 °C)	self-splicing fitness (ln) (37 °C)
CCAUAGCAAUAUUACGUUGG	-4.37 ± 0.25	-3.27 ± 0.24
CCCAAGCAAUAUUACGACCG	-3.32 ± 0.24	-3.03 ± 0.47
CCCAAGCAAUAUUACGAGCC	-3.79 ± 0.4	-2.79 ± 0.44
CCCAAGCAAUAUUACGAGGG	-4.18 ± 0.17	-2.53 ± 0.16
CCCAAGCAAUAUUACGAUAG	-2.95 ± 0.16	-2.54 ± 0.22
CCCAAGCAAUAUUACGAUUG	-3.88 ± 0.2	-2.78 ± 0.28
CCCAAGCAAUAUUACGCACA	-2.53 ± 0.2	-2.19 ± 0.31
CCCAAGCAAUAUUACGCCAA	-2.82 ± 0.16	-2.47 ± 0.2
CCCAAGCAAUAUUACGCCUG	-3.12 ± 0.19	-2.88 ± 0.27
CCCAAGCAAUAUUACGCGGG	-3.8 ± 0.17	-2.45 ± 0.18
CCCAAGCAAUAUUACGCUGA	-3.51 ± 0.25	-3.69 ± 0.34
CCCAAGCAAUAUUACGCUGU	-3.8 ± 0.15	-2.95 ± 0.17
CCCAAGCAAUAUUACGCUUA	-3.38 ± 0.22	-2.78 ± 0.21
CCCAAGCAAUAUUACGCUUC	-2.84 ± 0.18	-3.15 ± 0.43
CCCAAGCAAUAUUACGGCCA	-3.58 ± 0.31	-1.58 ± 0.16
CCCAAGCAAUAUUACGGGUU	-2.98 ± 0.12	-2.9 ± 0.2
CCCAAGCAAUAUUACGUACU	-3.84 ± 0.19	-2.46 ± 0.21
CCCAAGCAAUAUUACGUUAG	-4.82 ± 0.24	-3.02 ± 0.22
CCCAAGCAAUAUUACGUUUG	-4.1 ± 0.21	-2.82 ± 0.21
CCCCAGCAAUAUUACGACGA	-4.12 ± 0.39	-2.68 ± 0.27
CCCCAGCAAUAUUACGACGG	-3.1 ± 0.17	-3.42 ± 0.3
CCCCAGCAAUAUUACGCAGA	-4.17 ± 0.28	-3.54 ± 0.21
CCCCAGCAAUAUUACGCAGU	-3.25 ± 0.12	-2.71 ± 0.15
CCCCAGCAAUAUUACGCAUG	-3.67 ± 0.17	-2.75 ± 0.16

Sequence	self-splicing fitness (ln) (30 °C)	self-splicing fitness (ln) (37 °C)
CCCCAGCAAUAUUACGCGCG	-2.69 ± 0.14	-2.97 ± 0.22
CCCCAGCAAUAUUACGCGGC	-2.98 ± 0.16	-3.16 ± 0.4
CCCCAGCAAUAUUACGCGUC	-3.21 ± 0.17	-2.92 ± 0.18
CCCCAGCAAUAUUACGCUAU	-3.43 ± 0.15	-1.9 ± 0.13
CCCCAGCAAUAUUACGGCAC	-4.46 ± 0.42	-2.55 ± 0.29
CCCCAGCAAUAUUACGGCUU	-3.23 ± 0.21	-2.25 ± 0.23
CCCCAGCAAUAUUACGUAGC	-3.93 ± 0.16	-2.93 ± 0.2
CCCCAGCAAUAUUACGUAUU	-3.55 ± 0.16	-3.28 ± 0.28
CCCCAGCAAUAUUACGUGAA	-4.42 ± 0.13	-2.44 ± 0.099
CCCCAGCAAUAUUACGUGGA	-3.09 ± 0.086	-1.23 ± 0.068
CCCCAGCAAUAUUACGUUUC	-4.32 ± 0.28	-2.36 ± 0.23
CCCGAGCAAUAUUACGACAG	–	-2.46 ± 0.41
CCCGAGCAAUAUUACGACCA	–	-1.35 ± 0.31
CCCGAGCAAUAUUACGACCG	-4 ± 0.29	-2.24 ± 0.29
CCCGAGCAAUAUUACGACGG	-3.44 ± 0.17	-3.49 ± 0.27
CCCGAGCAAUAUUACGAGAG	-3.25 ± 0.2	-2.15 ± 0.36
CCCGAGCAAUAUUACGAGCG	-3.77 ± 0.29	-2.88 ± 0.27
CCCGAGCAAUAUUACGAUGC	-4.29 ± 0.46	-2.52 ± 0.38
CCCGAGCAAUAUUACGAUUA	-3.04 ± 0.24	-2.4 ± 0.21
CCCGAGCAAUAUUACGCAGC	–	-2.05 ± 0.42
CCCGAGCAAUAUUACGCGAC	-1.96 ± 0.29	-1.68 ± 0.29
CCCGAGCAAUAUUACGCUAA	-2.14 ± 0.27	-1.99 ± 0.2
CCCGAGCAAUAUUACGGACU	-2.57 ± 0.11	-2.19 ± 0.2
CCCGAGCAAUAUUACGGCCG	-4.1 ± 0.23	-3.14 ± 0.32

— the supplement of paper PMC7877785
